Experimental findings from US20190322730A1 (NGM BIOPHARMACEUTICALS, published 2019) are described below.

A value given as a limit tells only on which side of the number the result lay.

Assay [1] concerns the target T1, human complement component C3 (human, UniProt P01024 23-667; P01024 672-1663).
T1 construct: also called human C3
Kind of assay: binding screen of Example 5; method and unit not stated.

Assay [2] has as its target T2, C3a (human, UniProt P01024 672-748). The description is as above.
In assay [3] the target is T3, Factor Bb (UniProt P00751 260-764).
T3 construct: domain: Factor Bb
The assay is described as above.

In assay [4] the target is C3b (human, UniProt P01024 23-667; P01024 749-1663). Described as above.
C3b, sequence (P01024 23-667 limits assumed, chain 1 of 2): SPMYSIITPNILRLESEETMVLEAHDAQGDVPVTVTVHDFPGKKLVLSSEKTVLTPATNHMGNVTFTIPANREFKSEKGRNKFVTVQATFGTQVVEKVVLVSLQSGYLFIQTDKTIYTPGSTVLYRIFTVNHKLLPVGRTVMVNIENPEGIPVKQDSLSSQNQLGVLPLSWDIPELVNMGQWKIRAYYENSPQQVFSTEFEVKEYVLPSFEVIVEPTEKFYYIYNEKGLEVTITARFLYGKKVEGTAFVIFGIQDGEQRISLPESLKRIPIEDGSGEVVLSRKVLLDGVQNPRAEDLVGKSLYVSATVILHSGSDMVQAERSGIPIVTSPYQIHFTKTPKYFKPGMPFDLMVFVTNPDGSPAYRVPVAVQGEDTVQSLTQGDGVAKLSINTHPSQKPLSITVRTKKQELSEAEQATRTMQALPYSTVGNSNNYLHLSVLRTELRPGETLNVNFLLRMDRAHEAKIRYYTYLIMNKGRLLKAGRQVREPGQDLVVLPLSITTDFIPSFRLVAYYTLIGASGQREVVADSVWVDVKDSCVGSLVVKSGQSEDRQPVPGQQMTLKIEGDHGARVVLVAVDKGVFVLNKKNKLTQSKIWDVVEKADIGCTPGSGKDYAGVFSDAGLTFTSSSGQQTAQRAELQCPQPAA
C3b, sequence (P01024 749-1663 limits assumed, chain 2 of 2): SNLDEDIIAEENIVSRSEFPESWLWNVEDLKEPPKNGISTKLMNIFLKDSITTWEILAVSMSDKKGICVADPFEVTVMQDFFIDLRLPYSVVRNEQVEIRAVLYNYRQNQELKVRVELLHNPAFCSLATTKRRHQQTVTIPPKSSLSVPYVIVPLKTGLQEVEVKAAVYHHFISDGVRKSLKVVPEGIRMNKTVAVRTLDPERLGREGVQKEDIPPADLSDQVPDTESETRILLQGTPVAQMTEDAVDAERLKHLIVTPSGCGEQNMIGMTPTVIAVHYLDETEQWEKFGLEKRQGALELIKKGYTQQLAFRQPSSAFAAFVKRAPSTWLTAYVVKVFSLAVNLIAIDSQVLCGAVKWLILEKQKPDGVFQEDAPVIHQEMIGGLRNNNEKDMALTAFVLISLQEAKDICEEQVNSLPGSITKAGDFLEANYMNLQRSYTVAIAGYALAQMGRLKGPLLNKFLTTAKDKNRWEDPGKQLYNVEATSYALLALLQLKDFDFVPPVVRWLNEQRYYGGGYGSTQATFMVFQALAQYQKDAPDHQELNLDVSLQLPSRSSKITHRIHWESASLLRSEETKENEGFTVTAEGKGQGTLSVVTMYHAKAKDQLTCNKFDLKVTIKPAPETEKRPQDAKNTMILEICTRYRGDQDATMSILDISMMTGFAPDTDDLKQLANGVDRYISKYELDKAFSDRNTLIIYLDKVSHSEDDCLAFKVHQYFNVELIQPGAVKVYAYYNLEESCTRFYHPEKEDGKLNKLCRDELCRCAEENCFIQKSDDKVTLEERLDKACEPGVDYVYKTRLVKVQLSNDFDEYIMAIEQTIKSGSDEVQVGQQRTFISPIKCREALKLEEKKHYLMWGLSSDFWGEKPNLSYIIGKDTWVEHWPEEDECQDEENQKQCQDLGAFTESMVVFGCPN
In assay [5] the target is T4, C3d (UniProt P01024 1002-1303, limits assumed).
T4 construct: domain: C3d
T4 sequence (P01024 1002-1303 limits assumed): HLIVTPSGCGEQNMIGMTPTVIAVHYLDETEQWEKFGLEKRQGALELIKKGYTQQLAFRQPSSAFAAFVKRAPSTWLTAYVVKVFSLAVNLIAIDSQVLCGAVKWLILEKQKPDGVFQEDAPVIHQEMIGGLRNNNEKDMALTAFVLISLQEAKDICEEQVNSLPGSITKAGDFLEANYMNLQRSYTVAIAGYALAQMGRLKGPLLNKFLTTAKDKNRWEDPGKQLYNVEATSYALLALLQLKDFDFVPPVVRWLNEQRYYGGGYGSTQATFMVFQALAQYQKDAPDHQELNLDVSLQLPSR
The description is as above.

The target in assay [6] is T1, human complement component C3. The assay can be described thus: cell-based or functional assay.
Assay [7] concerns the target T5, cynomolgus monkey complement component C3 (cynomolgus monkey, UniProt P01024 24-1663 (human entry)). Kind of assay: cell-based or functional assay.
Assay [8] deals with T1, human complement component C3. Kind of assay: SPR (Biacore), antibody captured by anti-Fc, C3 injected 0.62-40 nM, 37 C. How it is done:
(§1) The binding affinities of exemplary anti-C3 antibodies to human C3 and cyno C3 were measured using a Biacore system (GE Healthcare LifeSciences). Briefly, anti-Fc antibody (Sigma-Aldrich) was immobilized on all four flow cells of a CM5 chip using amine coupling reagents (GE Healthcare LifeSciences). Antibodies were captured on flow cells 2, 3, and 4 using flow cell 1 as a reference. Concentrations ranging from 0.62-40 nM of human C3 or cyno C3 were injected at a flow rate of 50 μL/min at 37° C. Kinetic data were collected over time and fit using the simultaneous global fit equation to yield affinity constants (KD values) for each antibody.
For orientation: SPR reads the build-up and loss of mass on a sensor chip optically.

In assay [9] the target is T5, cynomolgus monkey complement component …. Described as above. As to the method:
as §1

For assay [10], the target named is T2, C3a. The assay can be described thus: binding screen of Example 5, relative to control mIgG2.
Assay [11] concerns the target T3, Factor Bb. The assay is described as above.
In assay [12] the target is T4, C3d. Described as above.
Assay [13] concerns the target T1, human complement component C3. The assay can be described thus: SPR (Biacore), 37 C. How it is done: as §1
Assay [14] addresses T5, cynomolgus monkey complement component …. Kind of assay: SPR (Biacore), 37 C. As to the method:
as §1

Assay [15] deals with T1, human complement component C3. The assay can be described thus: SPR (Biacore). How it is done:
as §1

Assay [16] shares this target. The assay can be described thus: cell-based or functional assay. The source holds these as a separate data set.
The target is the same in assay [17]. The assay can be described thus: SPR (Biacore); Intact antibody.
For assay [18] the target is unchanged. Kind of assay: cell-based or functional assay. This is another data set of the same source.
Assay [19] has the same target. Kind of assay: SPR (Biacore), antibody captured by anti-Fc, C3 injected, 37 C. As to the method:
as §1
(§2) A Biacore system was used to assess the binding affinities of the different molecules to human C3. […] Human C3 (concentration range 12-100 nM) was injected at a flow rate of 50 μL/min.

Assay [20] has the same target. The assay can be described thus: cell-based or functional assay. The source holds these as a separate data set.
Assay [21] concerns the target T5, cynomolgus monkey complement component …. The assay can be described thus: cell-based or functional assay. This is another data set of the same source.
In assay [22] the target is T1, human complement component C3. Kind of assay: cell-based or functional assay. The source holds these as a separate data set.
Assay [23] has the same target. The assay can be described thus: SPR (Biacore), antibody captured by anti-Fc, C3 injected, 25 C; 25° C. As to the method: as §1, §2
For assay [24] the target is unchanged. Kind of assay: SPR (Biacore). This is another data set of the same source.

T1 sequence (P01024 23-667, chain 1 of 2): as the sequence (P01024 23-667 limits assumed, chain 1 of 2) above
T1 sequence (P01024 672-1663, chain 2 of 2): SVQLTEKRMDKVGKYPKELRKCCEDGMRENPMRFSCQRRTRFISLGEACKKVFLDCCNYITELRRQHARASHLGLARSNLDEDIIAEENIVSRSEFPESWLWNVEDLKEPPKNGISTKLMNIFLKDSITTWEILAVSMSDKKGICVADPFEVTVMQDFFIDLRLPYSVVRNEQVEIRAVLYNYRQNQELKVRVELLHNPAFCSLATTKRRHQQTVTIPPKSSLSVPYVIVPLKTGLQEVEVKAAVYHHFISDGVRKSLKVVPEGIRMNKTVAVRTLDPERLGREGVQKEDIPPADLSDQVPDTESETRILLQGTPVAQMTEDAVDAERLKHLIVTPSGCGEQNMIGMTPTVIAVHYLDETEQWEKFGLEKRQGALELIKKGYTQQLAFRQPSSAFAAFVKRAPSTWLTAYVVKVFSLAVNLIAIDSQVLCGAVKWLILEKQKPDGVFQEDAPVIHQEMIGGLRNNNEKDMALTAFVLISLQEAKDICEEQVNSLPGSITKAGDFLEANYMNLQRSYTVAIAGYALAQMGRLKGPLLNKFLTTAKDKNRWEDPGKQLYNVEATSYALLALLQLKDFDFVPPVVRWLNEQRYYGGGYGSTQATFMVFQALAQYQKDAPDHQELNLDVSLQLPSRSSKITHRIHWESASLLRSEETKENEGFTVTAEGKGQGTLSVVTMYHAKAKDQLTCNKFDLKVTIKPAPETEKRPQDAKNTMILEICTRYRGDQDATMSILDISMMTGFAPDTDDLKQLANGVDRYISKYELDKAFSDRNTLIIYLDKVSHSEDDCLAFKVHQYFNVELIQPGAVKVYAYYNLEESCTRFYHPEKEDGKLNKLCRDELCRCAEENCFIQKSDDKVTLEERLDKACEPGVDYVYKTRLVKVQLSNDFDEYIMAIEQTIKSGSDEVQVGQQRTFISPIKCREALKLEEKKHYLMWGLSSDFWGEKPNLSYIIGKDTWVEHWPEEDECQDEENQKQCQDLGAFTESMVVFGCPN
T2 sequence (P01024 672-748 limits assumed): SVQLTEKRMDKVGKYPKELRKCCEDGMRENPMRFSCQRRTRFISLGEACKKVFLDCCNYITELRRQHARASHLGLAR
T5 sequence (P01024 other isoform, or with tags, fused parts or gaps): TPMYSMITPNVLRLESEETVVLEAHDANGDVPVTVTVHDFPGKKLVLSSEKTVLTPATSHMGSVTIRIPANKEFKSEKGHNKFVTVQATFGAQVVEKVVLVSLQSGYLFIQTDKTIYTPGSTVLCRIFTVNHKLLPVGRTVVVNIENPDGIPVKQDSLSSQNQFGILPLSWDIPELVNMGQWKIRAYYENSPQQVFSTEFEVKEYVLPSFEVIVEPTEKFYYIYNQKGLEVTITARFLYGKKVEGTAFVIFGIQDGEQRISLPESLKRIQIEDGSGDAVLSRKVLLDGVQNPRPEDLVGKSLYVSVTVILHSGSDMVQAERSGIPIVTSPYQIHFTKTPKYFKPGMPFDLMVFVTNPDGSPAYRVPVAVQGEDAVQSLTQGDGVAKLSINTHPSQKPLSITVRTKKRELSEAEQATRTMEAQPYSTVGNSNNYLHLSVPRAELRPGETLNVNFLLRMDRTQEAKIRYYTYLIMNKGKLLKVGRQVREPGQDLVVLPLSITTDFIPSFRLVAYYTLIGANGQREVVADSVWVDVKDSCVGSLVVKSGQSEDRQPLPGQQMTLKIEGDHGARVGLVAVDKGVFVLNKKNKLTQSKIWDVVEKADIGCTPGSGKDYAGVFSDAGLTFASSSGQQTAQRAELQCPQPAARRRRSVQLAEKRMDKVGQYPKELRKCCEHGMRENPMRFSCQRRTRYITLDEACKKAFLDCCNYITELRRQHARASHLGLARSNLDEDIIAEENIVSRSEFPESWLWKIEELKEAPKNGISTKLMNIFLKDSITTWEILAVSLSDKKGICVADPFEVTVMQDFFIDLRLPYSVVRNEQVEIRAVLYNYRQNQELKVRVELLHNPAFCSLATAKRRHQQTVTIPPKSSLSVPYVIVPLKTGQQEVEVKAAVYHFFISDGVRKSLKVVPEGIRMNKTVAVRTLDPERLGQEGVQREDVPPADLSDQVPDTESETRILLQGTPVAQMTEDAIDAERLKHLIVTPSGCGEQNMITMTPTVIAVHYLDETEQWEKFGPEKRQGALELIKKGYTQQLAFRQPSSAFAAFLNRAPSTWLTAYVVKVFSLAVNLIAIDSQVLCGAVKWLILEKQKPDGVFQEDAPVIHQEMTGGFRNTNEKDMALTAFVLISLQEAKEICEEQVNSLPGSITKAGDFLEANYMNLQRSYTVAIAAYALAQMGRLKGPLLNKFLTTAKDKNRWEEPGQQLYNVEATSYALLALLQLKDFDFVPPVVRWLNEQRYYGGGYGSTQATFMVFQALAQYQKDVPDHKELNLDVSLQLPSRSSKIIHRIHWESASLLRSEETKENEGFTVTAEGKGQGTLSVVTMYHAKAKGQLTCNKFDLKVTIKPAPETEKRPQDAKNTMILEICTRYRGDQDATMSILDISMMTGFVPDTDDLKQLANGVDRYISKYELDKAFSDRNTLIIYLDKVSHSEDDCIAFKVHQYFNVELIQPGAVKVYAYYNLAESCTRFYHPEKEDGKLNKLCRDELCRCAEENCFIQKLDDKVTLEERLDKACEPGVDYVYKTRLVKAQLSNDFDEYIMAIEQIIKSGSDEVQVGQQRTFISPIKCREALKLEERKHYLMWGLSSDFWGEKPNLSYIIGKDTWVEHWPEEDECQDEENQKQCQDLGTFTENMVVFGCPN

B1: antibody 38F5 (antibody, V domains shown)
VH: EVMLVESGGALVKPGGSLKLSCTASGFTFSNYAMSWVRQTPEKRLEWVAQTISSGGRYTYYPDSVKGRFTISRDNARNTLYLQMSSLRSEDTAMYYCVRRYYGNSYWYFDVWGAGTTVTVSS
VL: DIVMTQSPSSLSVSAGEKVTMNCKSSQSLLNSGNQKHYLTWYQQKPGQPPKLLIYGASTRGSGVPDRFTGSGSGTDFTLTISSVQAEDLAVYYCQNDHSYPYTFGGGTKLEIK
notes: Mouse hybridoma antibody
With B1, the “binding relative to negative control mIgG2” value in assay [1] is 0.83; in assay [2], 0; in [3], -0.01; in assay [4], 0.66; in assay [5] it was 0.01. In addition, the “Hemolytic Assay IC50, Human AP” value in assay [6] was 9.2 nM. In addition, in [6], the “Hemolytic Assay IC50, Human CP” value turned out to be 6.7 nM. In addition, the “Hemolytic Assay IC50, Cyno AP” value in assay [7] turned out to be 12.9 nM. Further, the “Hemolytic Assay IC50, Cyno CP” value in assay [7] worked out at 2.3 nM.

B2: antibody 38G10 (antibody, V domains shown)
VH: EVQLQQSGPELVKPGDSVKMSCKASGYTFTDFYMDWVKQSHGKSLEWIGYIYPHNGGTTYNQNFTGKATLTVDKSSNTAYMELHSLTSEDSAVYYCARRGGFDFDYWGQGTTLTVSS
VL: NIVMTQSPKSMSLSVGERVTLRCKASENVDTYVSWYQQKPEQSPKLLIYGASNRYTGVPDRFTGSGSATEFTLTISSVQAEDLVGYHCGQSHSYPLTFGAGTKLELK
notes: Mouse hybridoma antibody; Parent of Hz38G10; also called parental 38G10 antibody
With B2, the “binding relative to negative control mIgG2” value in assay [1] stood at 0.53; in assay [2], 0.02; in [3], 0.01; in [5] it was 0. The Kd in assay [8] was 0.19 nM; in assay [9], 0.16 nM; in [13] it was roughly 0.1 nM; in assay [14], roughly 0.1 nM. Besides, the “Hemolytic Assay IC50, Human AP” value in assay [6] stood at 1.9 nM. The “Hemolytic Assay IC50, Human CP” value in assay [6] was 1.7 nM. In addition, the “Hemolytic Assay IC50, Cyno AP” value in assay [7] worked out at 3.5 nM. The binding result in [10], in assay [11] and in assay [12] was “no binding” throughout.

B3: antibody 15C12 (antibody, V domains shown)
VH: EIQLQQSGAELEKPGASVKISCKASGYSFTGYNMHWVKQSHGKSLEWIGNINPYYGTTNSNQKFEDKATLTVDKSSSTAYMQLNSLTSEDSAVYYCARGIYYYGTGYPYFDFWGQGTTLTVSS
VL: DIQMTQTTSSLSASLGDRVTISCRASQDINNYLNWYLQKPDGTVKLLIYYTSRLHSGVPSRFSGSGSGTDYSLTISNLEQEDLATYFCQQGITLPWTFGGGTKLEIK
notes: Mouse hybridoma antibody
Consider B3, for which the Kd in assay [8] amounted to 0.13 nM. The dissociation constant (Kd) in assay [9] worked out at 0.13 nM. In assay [6], the “Hemolytic Assay IC50, Human AP” value was found to be 3.7 nM and the “Hemolytic Assay IC50, Human CP” value is 3.8 nM. In assay [7], the “Hemolytic Assay IC50, Cyno AP” value turned out to be 8.8 nM.

B4: antibody Hz38G10 (antibody, human IgG1, kappa, V domains shown)
VH: QVQLVQSGAEVKKPGASVKVSCKASGYTFTDFYMDWVRQAPGQRLEWMGYIYPHNGGTTYNQQFTGRVTITVDKSASTAYMELSSLRSEDTAVYYCARRGGFDFDYWGQGTLVTVSS
VL: DIQMTQSPSSLSASVGDRVTITCKASENVDTYVSWYQQKPGKAPKLLIYGASNRYTGVPSRFSGSGSGTDFTFTISSLQPEDIATYHCGQSHSYPLTFGQGTKLEIKR
notes: also called humanized 38G10; Hz38G10 intact antibody
For B4, the Kd in assay [15] is 0.3 nM. Moreover, the “fold more effective than COMP or COMP-PEG in inhibiting the alternative pathway” value in [16] was roughly 10 fold. In [17], this molecule showed a dissociation constant (Kd) of 0.027 nM. Further, in [18], the “AP human C3 IC50 (hemolysis)” value is 5.9 nM and the “CP human C3 IC50 (hemolysis)” value worked out at 4 nM. The same molecule came in with a Kd in assay [19] of 0.28 nM. For the same molecule, in assay [20], the “Alternative Pathway IC50 (hemolysis), Human C3” value is 3.9 nM and the “Classical Pathway IC50 (hemolysis), Human C3” value is 5.2 nM. In assay [21], the “Alternative Pathway IC50 (hemolysis), Cyno C3” value turned out to be 4.8 nM and the “Classical Pathway IC50 (hemolysis), Cyno C3” value turned out to be 0.7 nM. In addition, in [22], the “Alternative Pathway IC50 (hemolysis; run with COMP)” value was determined as 2.5 nM, the “Alternative Pathway IC50 (hemolysis; run with COMP-PEG)” value amounted to 4 nM, the “Classical Pathway IC50 (hemolysis; run with COMP)” value amounted to 2 nM and the “Classical Pathway IC50 (hemolysis; run with COMP-PEG)” value amounted to 4.1 nM. In addition, the Kd in assay [23] is less than 0.1 nM. For the same molecule, in assay [14], the Kd was 1.8 nM.

B5: Hz38G10 dsscFv (scFv)
scFv: MDIQMTQSPSSLSASVGDRVTITCKASENVDTYVSWYQQKPGKAPKLLIYGASNRYTGVPSRFSGSGSGTDFTFTISSLQPEDIATYHCGQSHSYPLTFGCGTKLEIKGGGGSGGGGSGGGGSQVQLVQSGAEVKKPGASVKVSCKASGYTFTDFYMDWVRQAPGQCLEWMGYIYPHNGGTTYNQQFTGRVTITVDKSASTAYMELSSLRSEDTAVYYCARRGGFDFDYWGQGTLVTVSS
notes: also called Hz38G10 VL-linker-VH dsscFv
In [24], B5 returned a dissociation constant Kd of 0.035 nM. For the same molecule, in assay [18], the “AP human C3 IC50 (hemolysis)” value is 19.5 nM and the “CP human C3 IC50 (hemolysis)” value worked out at 15.3 nM.

B6: antibody 3D8 (antibody, V domains shown)
VH: EIQLQQSGAELVKPGASVKISCKASGYSFTGYNMNWVKQSHGKSLEWIGNINPYYGSTNYNQKFKGKATLTVDKSSTTAYMQLDSLTSEDSAVYYCARGYYGGNYPFAYWGQGTLVTVSA
VL: DIQMTQSPASLSASVGETVTITCRASENIYSYLAWYQQKQGKSPQLLVYNAKTLAEGVPSRFSGSGSGTQFSLKINSLQPEDFGSYYCQHYYGTPYTFGGGSKVEIK
notes: Mouse hybridoma antibody raised against human C3
Regarding B6, the “binding relative to negative control mIgG2” value in [1] was 0.47; in assay [2], -0.01; in [3], -0.01; in assay [4] it was 0.38; in [5], 0.01. The Kd was found to be 1.9 nM in assay [8] and 1.4 nM in [9]. In addition, the “Hemolytic Assay IC50, Human AP” value in [6] was 4.2 nM. The “Hemolytic Assay IC50, Human CP” value in [6] was found to be 3.6 nM. Further, in assay [7], the “Hemolytic Assay IC50, Cyno AP” value worked out at 5.5 nM.

B7: antibody 62B11 (antibody, V domains shown)
VH: EVKLVESGGGLVQPGGSLKLSCAASGFTFSSYTMSWVRQTPEKRLEWVAYISSGGGTTYYPDTVKGRFTVSRDNAKNTLYLQMSSLRSEDTAMYSCARRYYRGSSLWYFDVWGAGTTVTVSS
VL: DIVMTQSPSSLTVTAGEKVTMSCKSSQSLFNSGSQKNFLTWYQQRPGQPPKLLIYWASTRESGVPDRFTGSGSGTDFTLTISSVQAEDLAVYYCQNDYSYPLTFGAGTKLELK
notes: Mouse hybridoma antibody
Consider B7, for which the “binding relative to negative control mIgG2” value in assay [1] was 0.83; in [2] it was -0.03; in [3] it was -0.02; in assay [4] it was 0.76; in [5], -0.02. Further, in assay [6], the “Hemolytic Assay IC50, Human AP” value stood at 6.6 nM. The “Hemolytic Assay IC50, Human CP” value in [6] amounted to 4.2 nM. Further, the “Hemolytic Assay IC50, Cyno AP” value in assay [7] is roughly 11 nM. Also, in assay [7], the “Hemolytic Assay IC50, Cyno CP” value is roughly 1 nM.

As usually defined, the Kd is the constant that tells how readily two partners part at equilibrium.
